Data reported in paper PMC11459484.

Target: Selenomonas sp. HNH-Cascade Cas7 (Cas7f1) (Selenomonas sp.)
Experiment: cryo-EM structure; SsCascade RNP (Cas5/6/7/8 and processed crRNA) co-expressed in E. coli, purified by Ni-NTA and gel filtration, mixed with target DNA at ambient temperature for 5 minutes; Map A 3.48 Å, Map B 3.28 Å

Selenomonas sp. HNH-Cascade Cas7 (Cas7f1) (natural protein)
stoichiometry N: 6
